Here are results for 2 molecules from PMC5778112.

The target in assay [1] is VLA-4 (α4β1, CD49d/CD29) (human (endogenous in Jurkat and primary human CD4+ T cells)) (UniProt P13612).
The target is the same in assay [2]. This is another data set of the same source.

UniProt P13612, sequence (P13612 34-1032, chain 1 of 2): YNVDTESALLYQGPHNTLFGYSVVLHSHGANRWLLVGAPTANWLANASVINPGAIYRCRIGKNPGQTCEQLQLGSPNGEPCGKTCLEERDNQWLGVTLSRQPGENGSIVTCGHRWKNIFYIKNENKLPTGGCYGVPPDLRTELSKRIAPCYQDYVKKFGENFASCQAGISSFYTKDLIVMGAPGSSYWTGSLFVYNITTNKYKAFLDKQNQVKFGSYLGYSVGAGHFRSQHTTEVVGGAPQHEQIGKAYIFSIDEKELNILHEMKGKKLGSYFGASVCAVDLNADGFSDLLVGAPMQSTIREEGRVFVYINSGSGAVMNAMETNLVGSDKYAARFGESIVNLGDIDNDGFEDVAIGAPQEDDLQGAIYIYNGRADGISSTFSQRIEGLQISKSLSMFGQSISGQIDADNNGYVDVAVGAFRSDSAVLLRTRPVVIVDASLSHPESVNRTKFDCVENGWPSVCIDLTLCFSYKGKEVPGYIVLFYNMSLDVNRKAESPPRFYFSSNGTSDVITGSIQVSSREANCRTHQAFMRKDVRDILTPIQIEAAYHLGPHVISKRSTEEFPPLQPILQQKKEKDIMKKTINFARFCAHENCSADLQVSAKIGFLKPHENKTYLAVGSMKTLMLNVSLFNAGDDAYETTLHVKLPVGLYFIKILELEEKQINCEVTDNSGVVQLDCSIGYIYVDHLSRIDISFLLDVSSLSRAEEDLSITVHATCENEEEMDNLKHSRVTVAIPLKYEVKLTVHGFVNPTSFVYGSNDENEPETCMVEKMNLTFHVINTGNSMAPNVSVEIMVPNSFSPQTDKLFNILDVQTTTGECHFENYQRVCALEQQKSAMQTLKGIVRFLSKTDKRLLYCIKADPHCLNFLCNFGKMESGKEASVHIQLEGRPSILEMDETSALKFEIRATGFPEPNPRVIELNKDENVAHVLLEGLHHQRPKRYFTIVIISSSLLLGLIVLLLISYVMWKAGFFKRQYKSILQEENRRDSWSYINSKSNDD
UniProt P13612, sequence (P05556 21-798, chain 2 of 2, further chain): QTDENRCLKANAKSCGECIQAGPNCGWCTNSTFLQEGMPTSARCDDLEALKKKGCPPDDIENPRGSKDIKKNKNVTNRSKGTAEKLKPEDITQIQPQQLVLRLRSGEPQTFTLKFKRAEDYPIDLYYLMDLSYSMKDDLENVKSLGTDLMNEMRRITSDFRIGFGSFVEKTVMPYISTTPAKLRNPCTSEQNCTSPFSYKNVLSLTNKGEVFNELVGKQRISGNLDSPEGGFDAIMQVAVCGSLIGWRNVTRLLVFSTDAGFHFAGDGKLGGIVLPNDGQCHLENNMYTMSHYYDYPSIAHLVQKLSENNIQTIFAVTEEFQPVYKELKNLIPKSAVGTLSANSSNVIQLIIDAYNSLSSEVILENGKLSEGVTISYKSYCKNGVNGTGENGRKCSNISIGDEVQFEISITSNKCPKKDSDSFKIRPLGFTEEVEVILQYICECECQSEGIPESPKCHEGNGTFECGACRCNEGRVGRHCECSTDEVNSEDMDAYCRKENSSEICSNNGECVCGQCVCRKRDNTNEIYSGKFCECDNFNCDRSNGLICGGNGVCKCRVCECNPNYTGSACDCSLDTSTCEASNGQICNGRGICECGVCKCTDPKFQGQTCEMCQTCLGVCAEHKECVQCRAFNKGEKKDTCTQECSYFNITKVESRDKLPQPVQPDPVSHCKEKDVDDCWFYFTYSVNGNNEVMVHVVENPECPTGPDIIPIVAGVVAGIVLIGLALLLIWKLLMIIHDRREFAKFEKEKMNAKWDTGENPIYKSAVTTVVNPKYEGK

B1: human VCAM-1-Fc chimera (Fc fusion)
chain: FKIETTPESRYLAQIGDSVSLTCSTTGCESPFFSWRTQIDSPLNGKVTNEGTTSTLTMNPVSFGNEHSYLCTATCESRKLEKGIQVEIYSFPKDPEIHLSGPLEAGKPITVKCSVADVYPFDRLEIDLLKGDHLMKSQEFLEDADRKSLETKSLEVTFTPVIEDIGKVLVCRAKLHIDEMDSVPTVRQAVKELQVYISPKNTVISVNPSTKLQEGGSVTMTCSSEGLPAPEIFWSKKLDNGNLQHLSGNATLTLIAMRMEDSGIYVCEGVNLIGKNRKEVELIVQEKPFTVEISPGPRIAAQIGDSVMLTCSVMGCESPSFSWRTQIDSPLSGKVRSEGTNSTLTLSPVSFENEHSYLCTVTCGHKKLEKGIQVELYSFPRDPEIEMSGGLVNGSSVTVSCKVPSVYPLDRLEIELLKGETILENIEFLEDTDMKSLENKSLEMTFIPTIEDTGKALVCQAKLHIDDMEFEPKQRQSTQTLYVNVAPRDTTVLVSPSSILEEGSSVNMTCLSQGFPAPKILWSRQLPNGELQPLSENATLTLISTKMEDSGVYLCEGINQAGRSRKEVELIIQVTPKDIKLTAFPSESVKEGDTVIISCTCGNVPETWIILKKKAETGDTVLKSIDGAYTIRKAQLKDAGVYECESKNKVGSQLRSLTLDVQGRENNKDYFSPE
modifications: labeled with AF-647 for patterning
On to B1, for which, in assay [1], the actin flow rate in the lamellipodial region of Jurkat T cells (GFP-actin) spreading on coverslips coated with anti-CD3 + VCAM-1 (85–95 nm/s on anti-CD3 alone) was determined as 15 nm/s.

B2: His-tagged human VCAM-1 Fc (Fc fusion)
chain: B1 chain
For B2, in assay [2], the actin flow rate in the lamellipodial region of Jurkat T cells on supported lipid bilayers with mobile anti-CD3 + VCAM-1 was 60 nm/s.
